Reference: PMC9418145, “Structure of the human NK cell NKR-P1:LLT1 receptor:ligand complex reveals clustering in the immune synapse” (Nature Communications, 2022)

Assays:
[1] = target: soluble human NKR-P1 ectodomain (C-type lectin-like domain, Gly90-Ser225), glycosylated with uniform GlcNAc2Man5 N-glycans (human) (UniProt Q12918); assay: AUC; sedimentation velocity of equimolar mixtures of glycosylated NKR-P1 with LLT1 or LLT1^SIM at increasing concentrations, 20 °C, SEC buffer; isotherms of weight-average S fitted to A + B ⇔ AB or A + B ⇔ AB + B ⇔ BAB (A the LLT1 dimer, B the NKR-P1 monomer)
[2] = crystal structure comparison of homodimers; conditions: glycan lost; control: glycosylated NKR-P1 (GlcNAc2Man5), 5MGR
[3] = analytical ultracentrifugation, sedimentation velocity; conditions: glycan lost; control: wild-type NKR-P1 ectodomain
CD spectroscopy = conditions: glycan lost; control: wild-type NKR-P1 ectodomain
AICL (Homo sapiens) = AICL (Homo sapiens) (UniProt Q92478); conditions: cited from earlier work
Sequence of AICL (Homo sapiens) (Q92478 whole entry, the tested form may be a part): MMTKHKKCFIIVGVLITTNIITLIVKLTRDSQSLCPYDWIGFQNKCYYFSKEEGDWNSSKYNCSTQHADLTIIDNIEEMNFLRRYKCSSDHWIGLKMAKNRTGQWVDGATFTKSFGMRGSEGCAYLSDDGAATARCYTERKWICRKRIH

[4] = target: T1, soluble human NKR-P1 ectodomain (C-type lectin-like domain, Gly90-Ser225), glycosylated with uniform … (human, UniProt Q12918 90-225, Asn-GlcNAc2Man5 N-glycans; potential N-glycosylation sites Asn116, Asn157, Asn169); assay: AUC; sedimentation velocity of equimolar mixtures of glycosylated NKR-P1 with LLT1 or LLT1^SIM at increasing concentrations, 20 °C, SEC buffer; isotherms of weight-average S fitted to A + B ⇔ AB or A + B ⇔ AB + B ⇔ BAB (A the LLT1 dimer, B the NKR-P1 monomer); conditions: both partners purified
T1 construct: residues at the N-terminus of the secreted protein, left from the N-terminal secretion leader of pOPINGGTneo; human NKR-P1 (CD161), extracellular CTL domain, Gly90-Ser225; For MST this protein was labelled with Atto 488 NHS-ester at pH 6.5; Monomeric in solution (AUC), a non-covalent helix α1-centered homodimer in the crystal; Ile168 stands in the structure; also called CD161; NKR-P1_glyco; …
T1 sequence: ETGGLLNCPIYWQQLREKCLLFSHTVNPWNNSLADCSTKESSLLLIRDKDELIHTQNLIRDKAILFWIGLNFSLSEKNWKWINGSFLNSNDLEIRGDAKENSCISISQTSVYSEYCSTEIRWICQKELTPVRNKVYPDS

[5] = target: the molecule itself; assay: AUC; sedimentation velocity of the single glycosylated proteins, 48,000 rpm, 20 °C, 10 mM HEPES pH 7.5, 150 mM NaCl, 10 mM NaN3
[6] = target: T1, soluble human NKR-P1 ectodomain (C-type …); assay: not stated; overall Kd of this study as told in the discussion; the experiment behind it (AUC or MST) is not named there; conditions: both partners purified

With “LLT1^SIM, N120R, R153E, K169A secondary interaction mode triple mutant of the soluble LLT1 ectodomain (from UniProt Q9UHP7 72-191) (domain or fragment)” the fold weaker overall affinity than the wild-type LLT1 [1] was 3 fold.

For NKR-P1 (CD161): Endo F1, the “structure_or_conformation, other: pairwise Cα RMSD” value [2] was “no change”.

With NKR-P1 (CD161): S159A the oligomerisation [3] was “increases” and the stability_or_folding (CD spectroscopy) was “no change”.

For NKp80 (from UniProt Q9NZS2), the Kd (AICL (Homo sapiens)) is given as 2.3 µM.

B1: stabilized H176C form of the soluble human LLT1 ectodomain (Gln72-Val191), glycosylated (domain or fragment, UniProt Q9UHP7 72-191, looked up)
chain: QAACPESWIGFQRKCFYFSDDTKNWTSSQRFCDSQDADLAQVESFQELNFLLRYKGPSDHWIGLSREQGQPWKWINGTEWTRQFPILGAGECAYLNDKGASSARCYTERKWICSKSDIHV
modifications: GlcNAc2Man5 glycans
notes: human LLT1, soluble ectodomain Gln72-Val191 with the stabilising mutation H176C; also called wild-type LLT1; soluble LLT1; source: HEK293S GnTI- cells, transiently transfected, secreted, purified (IMAC on Talon, SEC)
For B1, the “KD of the primary interaction mode” value [4] was 50 µM, the “stoichiometry N” value [5] was 2 and the Kd [6] was 90 µM.
